Changes are numbered by the printed parent chain.
T1: HHLA2 expressed on cells (3T3 cell line expressing HHLA2; HHLA2/K562) (UniProt Q9UM44 23-414, limits assumed)
T1 construct: whole, on cells
T1 sequence (looked up): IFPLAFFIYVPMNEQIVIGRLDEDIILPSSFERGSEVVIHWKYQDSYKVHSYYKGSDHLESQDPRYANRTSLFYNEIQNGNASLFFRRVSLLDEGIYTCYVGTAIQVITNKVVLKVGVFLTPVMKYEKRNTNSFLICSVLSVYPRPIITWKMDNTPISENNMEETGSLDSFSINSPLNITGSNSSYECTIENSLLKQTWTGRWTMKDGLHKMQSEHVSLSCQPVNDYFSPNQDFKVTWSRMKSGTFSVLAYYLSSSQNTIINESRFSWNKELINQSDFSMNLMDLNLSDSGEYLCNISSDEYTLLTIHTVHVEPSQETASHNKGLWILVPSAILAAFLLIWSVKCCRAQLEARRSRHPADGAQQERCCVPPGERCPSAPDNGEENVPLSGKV

T2: HHLA2 EC-Ig-Fc fusion polypeptide (UniProt Q9UM44 23-344)
T2 construct: extracellular domain; also called whole extracellular part of HHLA2; not shown: Ig Fc part
T2 sequence (looked up): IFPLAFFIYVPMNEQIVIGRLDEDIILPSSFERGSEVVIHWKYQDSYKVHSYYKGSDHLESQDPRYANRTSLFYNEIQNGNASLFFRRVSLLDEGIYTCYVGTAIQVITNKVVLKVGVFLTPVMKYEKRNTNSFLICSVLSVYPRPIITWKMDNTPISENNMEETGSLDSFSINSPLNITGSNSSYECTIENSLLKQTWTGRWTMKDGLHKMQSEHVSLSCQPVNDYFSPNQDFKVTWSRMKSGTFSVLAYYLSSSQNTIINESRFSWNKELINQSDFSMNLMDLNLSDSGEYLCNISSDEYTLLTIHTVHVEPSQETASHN

B1: KIR3DL3 expressed on cells (3T3 cell line expressing KIR3DL3; KIR3DL3+ NK92 cells; primary KIR3DL3+ NK cells and CD8 T cells) (receptor)
chain: QDKPFLSAWPGTVVSEGQHVTLQCRSRLGFNEFSLSKEDGMPVPELYNRIFRNSFLMGPVTPAHAGTYRCCSSHPHSPTGWSAPSNPVVIMVTGVHRKPSLLAHPGPLVKSGETVILQCWSDVRFERFLLHREGITEDPLRLVGQLHDAGSQVNYSMGPMTPALAGTYRCFGSVTHLPYELSAPSDPLDIVVVGLYGKPSLSAQPGPTVQAGENVTLSCSSRSLFDIYHLSREAEAGELRLTAVLRVNGTFQANFPLGPVTHGGNYRCFGSFRALPHAWSDPSDPLPVSVTGNSRNLHVLIGTSVVIIPFAILLFFLLHRWCANKKNAVVMDQEPAGNRTVNREDSDEQDPQEVTYAQLNHCVFTQRKITRPSQRPKTPPTDTSV
notes: also called KIR3DL3-expressing 3T3 cells; KIR3DL3 WT
B2: monoclonal 3B7 (antibody, V domains shown)
VH: QVQLQQSGPEVVRPGVSVKISCKGSGYTFSDYTMHWVKQSHAKSLEWIGVISTDNGNTNYNQKFKGKATMTVDKSSSTAYMELARLTSEDSAIYYCAREARDYGSIYALDYWGQGTSVTVS
VL: DIQMTQSPASLSASVGETVTITCRASGNIHNYLAWYQQKQGKSPQLLVYNAKTLADGVPSRFSGSGSGTQYSLKINNLQPEDFGNYYCQHFWSTPWTFGGGTKLEIKR
notes: Mouse hybridoma mAb; Entries include leader; Counted on the printed text
B3: monoclonal 34B10 (antibody, V domains shown)
VH: EVKLVESGGVLVQPGGSLRLSCATSGFTFTDYYMGWVRQPPGKALEWLGFIRNKANGYTTESSASVKGRFTISRDNSQSILYLQMNTLRAEDSATYYCARDYYSGSSLDYWGQGTTLTVSS
VL: DIQMTQTTSSLSASLGDRVTISCRASQDISNYLNWYQQKPDGTVKLLIYYTSRLHSGVPSRFSGSGSGTDYSLSISNLEQEDIATYFCQQGYTLPYTFGGGTKLEIKR
notes: Mouse hybridoma mAb; Entries include leader
B4: monoclonal 8G7 (antibody, V domains shown)
VH: EVMLVESGGGLVKPGGSLKLSCAASGFTFSTYAMSWVRQTPEKRLEWVATILSGGNYTYYPDSVKGRFTISRDNAKNTLNLQMSSLRSEDTAMYYCVIPYGSSPFDYWGQGTTLTVS
VL: SIVMTQTPKFLLVSAGDRVTITCKASQSVSNDVAWYQQKPGQSPKLLIYYASNRYTGVPDRFTGSGYGTDFTFTISTVQAEDLAVYFCQQDYSSPWTFGGGTKLEIK
notes: Mouse hybridoma mAb; also called anti-KIR3DL3 mAb clone 8G7
B5: monoclonal 14F8 (antibody, V domains shown)
VH: QVQLQQSGPEVVRPGVSVKISCKGSGYTFTDYTMHWVKQSHAKSLEWIGVISTYNGNTNYNQNFEGKATMTVDKSSSTAYMELARLTSEDSAIYYCARERGGDGYYSAVDYWGQGTSVTVS
VL: SIVMTQTPKFLLVSAGDRVTITCKASQSVINDVAWYQQKPGQSPKLLIYYASNRYTGVPDRFTGSGYGTDFTFTISTVQAEDLAVYFCQQDYSSPYTFGGGTKLEIKR
B6: monoclonal 11G8 (antibody, V domains shown)
VH: QVQLQQSGPDLVRPGVSVKISCKGSGYTFTDYAMHWVKQSHAKSLEWIGVISTDSGTTNYNQKFKGKATMTVDKSSSTAYMDLARLTSEDSAIYYCARDSSYYVRFSYWGQGTLVTVSA
VL: B5 VL with A15V, I30S, Y96W
notes: as for B3
B7: monoclonal 51C3 (antibody, V domains shown)
VH: EVQLQQSGPELVKPGASVKISCKTSGYTFTEYIMHWVKQSHGKSLEWIGGINPNNGGTNYNQKFKGKATLTVDTSSSIAYMELRSLTSEDSAVYYCARDDGYYVKFAYWGQGTLVTVSA
VL: B5 VL with Y96F, G100S
notes: as for B3
B8: monoclonal 29H7 (antibody, V domains shown)
VH: QVQLQQSGPEVVRPGVSVKISCKGSGYTFTDYVMHWVKQSHGKSLEWIGVISTYNGNTNYNQKFKGKATMTVDKSSSTAYMELARLTSEDSAIYYCARERGGDGYYSAMDYWGQGTSVTVSS
VL: B5 VL with T22A, D32N, K45E, S76T
notes: Mouse hybridoma mAb; Entries include (partial) leader
B9: monoclonal 30D10 (antibody, V domains shown)
VH: EVQLQQSGAELVRPGALVKLSCKASGFNFKDYFMHWVKQRPEQGLEWIGWIDPENGNTIYEPKFQGKASITADTSSNTAYLQLSSLTSEDTAVYYCARGGVGHWYFDVWGAGTTVTVS
VL: DIVLTQSPASLAVSLGQRATISCKASQSVDYDGDSYMNWYQQKPGQPPKLLIYVASNLKSGIPARFSGSGCGTDFTLNIHPVEEEDGATYYCQQTNEDPWTFGGGTKLEIK
notes: Mouse hybridoma mAb; VH entry includes leader and vector-derived residues
B10: monoclonal 26E10 (antibody, V domains shown)
VH: QAYLQQSGAELVRSGASVKMSCKASGYTFTSYNIHWVKQTPGQGLEWIGYIYPGDGVTNYNQKFKGKATLTADTSSSTAYMQISSLTSEDSAVYFCARSGNYGNYEGFAYWGQGTLVTVSA
VL: DIKMTQSPSSMYASLGERVTITCKASQDTNSYLSWFQQKPGKSPKTLIYRANRLVDGVPSRFSGSGSGQDYSLTISSLEYEDMGIYYCLQYDEFPYTFGGGTKLEIK
B11: monoclonal 12A10 (antibody, V domains shown)
VH: B10 VH with I34M, Y52F, V57G, N101Y
VL: DIKMTQSPSSMYASLGERVTITCKASQDINSYLSWFQQKPGKSPKTLIYRANRLVDGVPSRFSGSGSGQDYSLTISSLEYEDMGIYYCLHYAEFPYTFGGGTKLEIKR
B12: monoclonal 31C4 (antibody, V domains shown)
VH: B10 VH with I34M, Y52F, V57G
VL: B11 VL with H90Q, A92D
notes: Mouse hybridoma mAb; Entries include leader (and vector-derived residues in the VL)
B13: monoclonal 37A3 (antibody, V domains shown)
VH: QVQLVETGGGLVRPGNSLKLSCVTSGFTFSNYRMHWLRQPPGKRLEWIAVITVKSDNYGANFAESVKGRFTISRDDSKSSVYLQMNRLREEDTATYYCSRGSGPGFAYWGQGTLVTVS
VL: DIVMTQSPSSLSVSAGEKVTMSCKSSQSLLNSGNQKNYLAWYQQKPGQPPKLLIYGASTRESGVPDRFTGSGSGTDFTLTISSVQAEDLAVYYCQNDHSYPFTFGSGTKLEIK
notes: Mouse hybridoma mAb
B14: KIR3DL3 D0D1D2-Ig fusion polypeptide (Fc fusion)
chain: QDKPFLSAWPGTVVSEGQHVTLQCRSRLGFNEFSLSKEDGMPVPELYNRIFRNSFLMGPVTPAHAGTYRCCSSHPHSPTGWSAPSNPVVIMVTGVHRKPSLLAHPGPLVKSGETVILQCWSDVRFERFLLHREGITEDPLRLVGQLHDAGSQVNYSMGPMTPALAGTYRCFGSVTHLPYELSAPSDPLDIVVVGLYGKPSLSAQPGPTVQAGENVTLSCSSRSLFDIYHLSREAEAGELRLTAVLRVNGTFQANFPLGPVTHGGNYRCFGSFRALPHAWSDPSDPLPVSVTGNSRNLHVL
notes: Expressed in an S2 system; also called whole extracellular portion of KIR3DL3; whole extracellular part of KIR3DL3; not shown: human IgG1 Fc tag
B15: KIR3DL3 D0-Ig fusion polypeptide (Fc fusion)
chain: QDKPFLSAWPGTVVSEGQHVTLQCRSRLGFNEFSLSKEDGMPVPELYNRIFRNSFLMGPVTPAHAGTYRCCSSHPHSPTGWSAPSNPVVIMVTGVHRKPSLLA
notes: Expressed in an S2 system; also called KIR3DL3 DO-Ig; KIR3DL3 D0(Q26-A128)-Ig; not shown: human IgG1 Fc tag
B16: TMIGD2 expressed on 3T3 cells (receptor, UniProt Q96BF3 23-282, looked up)
chain: LSVQQGPNLLQVRQGSQATLVCQVDQATAWERLRVKWTKDGAILCQPYITNGSLSLGVCGPQGRLSWQAPSHLTLQLDPVSLNHSGAYVCWAAVEIPELEEAEGNITRLFVDPDDPTQNRNRIASFPGFLFVLLGVGSMGVAAIVWGAWFWGRRSCQQRDSGNSPGNAFYSNVLYRPRGAPKKSEDCSGEGKDQRGQSIYSTSFPQPAPRQPHLASRPCPSPRPCPSPRPGHPVSMVRVSPRPSPTQQPRPKGFPKVGEE
notes: whole, on cells
B17: TMIGD2-mIg fusion polypeptide (Fc fusion, UniProt Q96BF3 23-150, looked up)
chain: LSVQQGPNLLQVRQGSQATLVCQVDQATAWERLRVKWTKDGAILCQPYITNGSLSLGVCGPQGRLSWQAPSHLTLQLDPVSLNHSGAYVCWAAVEIPELEEAEGNITRLFVDPDDPTQNRNRIASFPG
notes: not shown: mouse Ig part (mIg), detected with anti-mouse IgG Fc

These binders were tested against T1, HHLA2 expressed on cells (3T3 cell line …) (assay: intercellular conjugate assay (FIG. 2B)).

Row | binding result | Binder
1 | binds | B1

Each binder was assayed against T3, KIR3DL3 protein (antigen of the affinity determination of Table 3) (human, UniProt Q8N743 26-325, limits assumed) (assay: method and antigen format not stated).
T3 construct: also called human KIR3DL3

Row | Kd | Binder
2 | 0.51 nM | B2
3 | 1.51 nM | B3
4 | 0.11 nM | B4
5 | 0.69 nM | B5
6 | 0.29 nM | B6
7 | 0.19 nM | B7
8 | 1.13 nM | B8
9 | 0.16 nM | B9
10 | 0.17 nM | B10
11 | 0.69 nM | B11
12 | 0.72 nM | B12
13 | 8.5 nM | B13

The binders below were run against T1, HHLA2 expressed on cells (3T3 cell line …) (assay: FACS, staining of 3T3 cells expressing HHLA2 (FIG. 2C)).

Row | binding result | Binder
14 | binds | B14
15 | binds | B15

These binders were tested against T2, HHLA2 EC-Ig-Fc fusion polypeptide (assay: FACS, staining of 3T3 cells expressing TMIGD2 (FIG. 8)).
Source text: To examine the binding of TMIGD2 to HHLA2, 3T3 cell lines expressing TMIGD2 were stained with a HHLA2 EC-Ig-Fc fusion polypeptide, a HHLA-2-IgV1-hIgG fusion polypeptide, or Ig (control) (FIG. 8).

Row | binding result | Binder
16 | binds | B16

What follows are binders tested against T1, HHLA2 expressed on cells (3T3 cell line …) (assay: FACS on 3T3 cells expressing HHLA2, TMIGD2-mIg (FIGS. 3A-3B)).
Experimental: FIG. 3A is a chart depicting mean fluorescent intensity (MFI) of 3T3 cells expressing HHLA2 that were incubated with TMIGD2-mIg fusion polypeptide or control mIgG at the indicated concentrations prior to staining with 10 μg/ml KIR3DL3-hIg followed by Allophycocyanin (APC)-conjugated anti-human IgG Fc.
FIG. 3B is a chart depicting MFI of 3T3 cells expressing HHLA2 that were incubated with KIR3DL3-hIg fusion polypeptide or control hIgG at the indicated concentrations prior to staining with 10 μg/ml TMIGD2-mIg followed by APC anti-mouse IgG Fc.

Row | binding result | Binder
17 | binds | B17

From patent US20230040568A1 (ALBERT EINSTEIN COLLEGE OF MEDICINE, published 2023)
